B1: Hairpin Ribozyme (parent)
chain: GUCCUCUUUCACGUGCGCGUGAAAGAGAGAAGUGAACCAGAGAAACACACGUUGUGGUAUAUUACCUGGUA

Variants of: B1
Assay: self-cleavage, relative activity (ratio to wild type); higher = more cleavage; co-transcriptional
Variant A61C G69A has a self-cleavage of 0.159. In the case of A61C G69U, the self-cleavage is reported as 0.145. With A61C U67A the self-cleavage was 0.252. A61C U67C gave a self-cleavage of 0.107. For A61G, the self-cleavage was 0.183. Work on A61G A64U yielded a self-cleavage of 0.202. A61G A71C gave a self-cleavage of 0.308. For A61G A71G, the self-cleavage was 0.168. In the case of A61G C66A, the self-cleavage is reported as 0.246. With A61G G69A the self-cleavage was 0.16. In the case of A61G U62C, the self-cleavage is reported as 0.0932. A61G U70C showed a self-cleavage of 0.146. In the case of A61U, the self-cleavage is reported as 0.213. For A61U A64U, the self-cleavage was 0.3. Work on A61U C65G yielded a self-cleavage of 0.193. A61U C65U showed a self-cleavage of 0.188. For A61U C66A, the self-cleavage was 0.122. In the case of A61U C66U, the self-cleavage is reported as 0.176. For A61U G68A, the self-cleavage was 0.219. A61U G68C gave a self-cleavage of 0.191. A61U U62C gave a self-cleavage of 0.197. Variant A61U U62G has a self-cleavage of 0.0473. Work on A61U U70A yielded a self-cleavage of 0.175. U62A A64G gave a self-cleavage of 0.093. U62A A64U gave a self-cleavage of 0.197. For U62A A71C, the self-cleavage was 0.325. U62A A71U gave a self-cleavage of 0.169. U62A C66A showed a self-cleavage of 0.12. Work on U62A G68A yielded a self-cleavage of 0.187. Variant U62A G68C has a self-cleavage of 0.156. Variant U62A G69A has a self-cleavage of 0.176. With U62A G69C the self-cleavage was 0.113. With U62A G69U the self-cleavage was 0.04. U62A U70A gave a self-cleavage of 0.143. With U62C A64C the self-cleavage was 0.149. In the case of U62C A64U, the self-cleavage is reported as 0.187. U62C A71C gave a self-cleavage of 0.595. With U62C C66A the self-cleavage was 0.13. Variant U62C G68A has a self-cleavage of 0.2. U62C G68C showed a self-cleavage of 0.223. U62C G69C gave a self-cleavage of 0.0631. U62C U63G showed a self-cleavage of 0.228. Variant U62C U67A has a self-cleavage of 0.166. U62C U70A gave a self-cleavage of 0.194. Work on U62C U70C yielded a self-cleavage of 0.255. U62G A64C showed a self-cleavage of 0.2. U62G A64G gave a self-cleavage of 0.166. Work on U62G A64U yielded a self-cleavage of 0.0808. In the case of U62G A71U, the self-cleavage is reported as 0.367. U62G C65A showed a self-cleavage of 0.157. In the case of U62G C65G, the self-cleavage is reported as 0.223. Work on U62G C66U yielded a self-cleavage of 0.12. U62G G68U showed a self-cleavage of 0.257. For U62G U63A, the self-cleavage was 0.0488. U62G U63C showed a self-cleavage of 0.243. With U62G U63G the self-cleavage was 0.191. With U62G U67A the self-cleavage was 0.25. For U63A, the self-cleavage was 0.188. U63A A64U gave a self-cleavage of 0.198. U63A C65A showed a self-cleavage of 0.219. Variant U63A C66A has a self-cleavage of 0.118. U63A C66G gave a self-cleavage of 0.0954. For U63A G68A, the self-cleavage was 0.276. U63A G68C gave a self-cleavage of 0.225. U63A G68U gave a self-cleavage of 0.225. Work on U63A G69C yielded a self-cleavage of 0.0966. U63A U70A gave a self-cleavage of 0.0404. U63C showed a self-cleavage of 0.186. Variant U63C A64U has a self-cleavage of 0.185. In the case of U63C A71G, the self-cleavage is reported as 0.328. Variant U63C A71U has a self-cleavage of 0.191. In the case of U63C C65A, the self-cleavage is reported as 0.106. In the case of U63C C65U, the self-cleavage is reported as 0.131. U63C G68A showed a self-cleavage of 0.192. With U63C G68C the self-cleavage was 0.133. In the case of U63C G69A, the self-cleavage is reported as 0.216. Variant U63C U70A has a self-cleavage of 0.189. U63G gave a self-cleavage of 0.171. With U63G A64G the self-cleavage was 0.134. U63G C65U gave a self-cleavage of 0.11. In the case of U63G G68C, the self-cleavage is reported as 0.169. Work on U63G U67C yielded a self-cleavage of 0.149. Work on A64C A71C yielded a self-cleavage of 0.28. For A64C C65A, the self-cleavage was 0.186. A64C C65U showed a self-cleavage of 0.223. A64C G68A showed a self-cleavage of 0.18. With A64C G68U the self-cleavage was 0.26. In the case of A64C G69C, the self-cleavage is reported as 0.129. Work on A64C U67C yielded a self-cleavage of 0.151. For A64C U70C, the self-cleavage was 0.0963. With A64G A71C the self-cleavage was 0.76. With A64G A71G the self-cleavage was 0.554. A64G A71U showed a self-cleavage of 0.287. Variant A64G G68A has a self-cleavage of 0.226. With A64G U67A the self-cleavage was 0.0458. Variant A64G U67C has a self-cleavage of 0.122. With A64G U67G the self-cleavage was 0.159. Variant A64U A71G has a self-cleavage of 0.311. For A64U G68A, the self-cleavage was 0.173. With A64U G69C the self-cleavage was 0.259. In the case of A64U U67A, the self-cleavage is reported as 0.206. With A64U U70G the self-cleavage was 0.155. Variant C65A C66A has a self-cleavage of 0.15. For C65A G68A, the self-cleavage was 0.378. With C65A G69A the self-cleavage was 0.169. With C65A U67G the self-cleavage was 0.197. C65G C66G gave a self-cleavage of 0.178. For C65G C66U, the self-cleavage was 0.429. With C65G G68C the self-cleavage was 0.151. For C65G G69A, the self-cleavage was 0.138. Variant C65G U67C has a self-cleavage of 0.183. Work on C65U A71U yielded a self-cleavage of 0.441. With C65U C66A the self-cleavage was 0.172. In the case of C65U C66U, the self-cleavage is reported as 0.185. Work on C65U G68C yielded a self-cleavage of 0.108. C65U G68U showed a self-cleavage of 0.327. In the case of C65U G69U, the self-cleavage is reported as 0.279. C65U U67C showed a self-cleavage of 0.209. With C65U U67G the self-cleavage was 0.229. Work on C66A G68C yielded a self-cleavage of 0.161. Work on C66A G68U yielded a self-cleavage of 0.105. For C66A G69A, the self-cleavage was 0.268. In the case of C66A U67G, the self-cleavage is reported as 0.091. For C66G U67G, the self-cleavage was 0.211. C66U A71C showed a self-cleavage of 0.757. In the case of C66U G69A, the self-cleavage is reported as 0.216. C66U G69C gave a self-cleavage of 0.198. C66U G69U showed a self-cleavage of 0.187. For C66U U67C, the self-cleavage was 0.326. With U67A A71C the self-cleavage was 0.381. With U67A G68A the self-cleavage was 0.115. U67A G68C showed a self-cleavage of 0.157. U67A G68U gave a self-cleavage of 0.128. For U67A G69A, the self-cleavage was 0.116. U67A U70A showed a self-cleavage of 0.237. With U67A U70G the self-cleavage was 0.186. In the case of U67C A71U, the self-cleavage is reported as 0.224. U67C G69A showed a self-cleavage of 0.178. In the case of U67G A71G, the self-cleavage is reported as 0.208. U67G G68C showed a self-cleavage of 0.177. U67G G69A gave a self-cleavage of 0.134. Variant G68A A71U has a self-cleavage of 0.15. In the case of G68A U70A, the self-cleavage is reported as 0.156. With G68C A71C the self-cleavage was 0.436. In the case of G68C A71G, the self-cleavage is reported as 0.233. G68C U70C gave a self-cleavage of 0.339. G68U A71C showed a self-cleavage of 0.329. Variant G68U A71G has a self-cleavage of 0.253. In the case of G68U G69A, the self-cleavage is reported as 0.3. In the case of G68U G69U, the self-cleavage is reported as 0.183. G69A showed a self-cleavage of 0.407. Variant G69A A71C has a self-cleavage of 0.912. Variant G69A A71U has a self-cleavage of 0.152. G69A U70C showed a self-cleavage of 0.387. Variant G69A U70G has a self-cleavage of 0.325. For G69C, the self-cleavage was 0.289. G69C A71C gave a self-cleavage of 0.609. With G69C A71G the self-cleavage was 0.316. With G69U the self-cleavage was 0.243. In the case of G69U U70C, the self-cleavage is reported as 0.304. Variant U70A has a self-cleavage of 0.926. For U70A A71C, the self-cleavage was 1.21. U70C showed a self-cleavage of 0.924. Variant U70C A71C has a self-cleavage of 1.79. In the case of U70C A71U, the self-cleavage is reported as 1.64. Variant U70G has a self-cleavage of 0.844.

From the RNAGym collection of RNA variant scans (doi:10.7554/elife.80360)
